The target in assay [1] is T1, human nerve growth factor (beta-NGF) (human, UniProt P01138 122-241). As to the kind of experiment: inhibition of human 125I-NGF binding to coated p75 fusion protein. The method, then:
(§1) Human TrkA and p75 receptor fusion proteins (R&D Systems) were diluted in Dulbecco's PBS (Gibco) to final concentrations of 10 nM and 0.6 nM, respectively. Maxisorp Nunc white 96 well microtitre plates (Nalge Nunc) were coated overnight at 4° C. with 100 μl/well of the diluted TrkA or p75 receptor solution. Plates were washed 3 times with PBS Tween 20, and then blocked with 200 μl/well 3% w/v bovine serum albumin (BSA) in PBS. Plates were washed after 1 h incubation at room temperature. Test antibodies were diluted to the desired concentration in assay buffer (0.5% w/v BSA and 0.05% v/v Tween 20 in PBS). […] Duplicate wells were prepared for each concentration of test sample. […] Bound radiolabel was quantified by addition of 100 μl/well Microscint 20 (Perkin Elmer) followed by counting using a Packard TopCount microplate liquid scintillation counter. Data were plotted and analysed using Graphpad Prism software to calculate IC₅₀ values for each experiment, and to derive the corresponding Ki according to the Cheng-Prusoff equation; Ki=IC₅₀/(1+D/Kd) Where: [0257]

In assay [2] the target is T2, rat nerve growth factor (beta-NGF) (rat, UniProt P25427 122-241). Kind of assay: inhibition of rat 125I-NGF binding to coated TrkA fusion protein. As to the method: as §1
Assay [3] concerns the target T2, rat nerve growth factor (beta-NGF). As to the kind of experiment: inhibition of rat 125I-NGF binding to coated p75 fusion protein. The method, then:
as §1

Assay [4] concerns the target T1, human nerve growth factor (beta-NGF). Kind of assay: inhibition of human 125I-NGF binding to coated TrkA fusion protein. The method, then:
as §1

For assay [5] the target is unchanged. As to the kind of experiment: cell-based or functional assay.
In assay [6] the target is T2, rat nerve growth factor (beta-NGF). Kind of assay: cell-based or functional assay.
The target is the same in assay [7]. Kind of assay: purified scFv, inhibition of rat NGF binding to TrkA fusion protein.
For assay [8], the target named is T1, human nerve growth factor (beta-NGF). Kind of assay: purified scFv, inhibition of human NGF binding to TrkA fusion protein.

Substitutions are numbered along the chain they refer to. Bounds are passed on as bounds.

T2 sequence (P25427 122-241): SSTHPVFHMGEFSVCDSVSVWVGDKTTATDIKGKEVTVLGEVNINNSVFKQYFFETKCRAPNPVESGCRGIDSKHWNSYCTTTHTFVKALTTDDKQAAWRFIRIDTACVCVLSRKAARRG
T1 sequence (P01138 122-241): as the sequence (P25427 122-241) above, with T3S, V6I, M9R, T37M, A60D, E65D, T92M, D94G, A117V, G120A counted along it

As for “mouse anti-mouse NGF MAB5260Z (Chemicon) (antibody)”, the IC50 (in general, the point on the concentration scale where inhibition reaches its midpoint) is 0.57 nM in assay [1], 0.31 nM in assay [2], 0.587 nM in assay [3] and 0.368 nM in assay [4]. Moreover, the inhibitory constant (Ki) – broadly, a measure of affinity in units of concentration, obtained from inhibition or displacement – stood at 0.472 nM in assay [1], 0.288 nM in assay [2], 0.532 nM in assay [3] and 0.333 nM in assay [4].

B1: 1033G9 human IgG4 (antibody, V domains shown)
VH: EVQLVQSGAEVRKPGSSVKVSCKASGDTSTLYSINWVRQVPGQGLEWMGAIIPIFGLTDYAQEFQGRLTITADESTNTAYMELTGLRSEDTAIYYCARNLFTTLSYWYFDLWGQGTLVTVSS
VL: SSELTQDPAVSVALGQTVRITCQGDRLRSYYASWYQQKPGQAPVLVIYGKNNRPSGIPDRFSGSSSGNTASLTITGAQAEDEADYYCNSRDSSGNHVVFGGGTLLTVL
On to B1, for which the figures for the “IC50, calcium mobilisation assay” value in assay [5] and in assay [6] were 55 nM and 26 nM, respectively.

B2: 1028F8 human IgG4 (antibody, V domains shown)
VH: EVQLLESGGGLVQPGGSLRLSCAASGFTFSSYAMSWVRQAPGKGLEWVSAIIGSGGSTYYADSVKGRFTISRDNSKNTLYLQMNSLRAEDTAVYYCARAGGSGWFENWFDPWGRGTLVTVSS
VL: QSVLTQPPSVSVSPGQTATITCSGDNLEDKYVSWYQQKAGQSPVLVIFQDSKRPSEIPERFSGSNSGNTATLTISGTLSGDEADYYCQVWDAGIDPWAFGGGTKLTVL
For the molecule B2, the “IC50, calcium mobilisation assay” value in assay [5] stood at 73 nM.

B3: 1021E5 scFv (scFv, part only; not given: Linker and tags, V domains shown, not shown: another chain or arm of the molecule; small tags and cut ends)
VH: EVQLVQSGAEVKKPGSSVKVSCKASGGTFSTYGISWVRQAPGQGLEWIGGIIPIFDTGNSAQSFQGRVTITADESTSTAYMEVSSLRSDDTAVYYCASSSRIYDYAGGDHYYYDMDVWGQGTMVTVSS
VL: QAVLTQPSSVSTPPGQKVTISCSGSSSNIGNNYVSWYQQLPGTAPKLLIYDNNKRPSGIPDRFSGSKSGTSATLGITGLQTGDEADYYCGTWDSSLSAWVFGGGTKLTVL
Take B3: the IC50 in assay [7] is 269 nM; in assay [8], 94 nM.

B4: 1160E3 scFv (scFv, V domains shown)
VH: B3 VH with V18A, Y105L, A106N, G107P, G108S, D109L, H110T, Y111A
VL: B3 VL with S26N
notes: also called LOT1160E03
B4: the IC50 in assay [7] is 0.22 nM; in assay [8], 0.14 nM.

B5: 1131H2 scFv (scFv, V domains shown)
VH: B3 VH with S17T, Y105L, A106N, G107P, G108S, D109L, H110T, Y111A
VL: B3 VL with S25T
notes: also called LOT1131H02
Take B5: the IC50 in assay [7] is 0.09 nM; in assay [8], below 0.01 nM.

B6: 1133C11 scFv (scFv, V domains shown)
VH: B3 VH with Y105L, A106N, G107P, G108S, D109L, H110T, Y111A
VL: B3 VL
notes: also called LOT1133C11
Take B6: the IC50 in assay [7] was 1.24 nM; in assay [8], 1.93 nM.

B7: 1165D4 scFv (scFv, V domains shown)
VH: B3 VH with Y105L, A106N, G107P, G108S, D109L, H110T, Y111A
VL: B3 VL with G30E
notes: also called LOT1165D04
On to B7, for which the half-inhibitory concentration (IC50) is 0.29 nM in assay [7] and 0.11 nM in assay [8].

B8: 1218H5 scFv (scFv, V domains shown)
VH: B3 VH with E10V, N59S, Y105L, A106N, G107P, G108S, D109L, H110T, Y111A
VL: B3 VL with I29T, P41S
notes: also called LOT1218H05
For B8, the half-inhibitory concentration (IC50) in assay [7] is 0.03 nM; in assay [8] it was below 0.01 nM.

B9: 1147G9 scFv (scFv, V domains shown)
VH: B3 VH with T31A, D56N, Y105L, A106N, G107P, G108S, D109L, H110T, Y111A
VL: B3 VL with I20V
notes: also called LOT1147G09
Take B9: the IC50 was 0.01 nM in assay [7] and 0.25 nM in assay [8].

B10: 1134D9 scFv (scFv, V domains shown)
VH: B3 VH with T69A, Y105L, A106N, G107P, G108S, D109L, H110T, Y111A
VL: B3 VL with S95G
notes: also called LOT1134D09
Regarding B10, the 50% inhibitory concentration (IC50) in assay [7] worked out at 0.2 nM; in assay [8], 0.14 nM.

B11: 1147D2 scFv (scFv, V domains shown)
VH: B3 VH with K19R, V20I, I34V, Y105L, A106N, G107P, G108S, D109L, H110T, Y111A
VL: B3 VL with I59V
notes: also called LOT1147D02
Turning to B11, the IC50 was 0.1 nM in assay [7] and below 0.01 nM in assay [8].

B12: 1132H9 scFv (scFv, V domains shown)
VH: B3 VH with Y105L, A106N, G107P, G108S, D109L, H110T, Y111A
VL: B3 VL with N28D, S57T
notes: also called LOT1132H09
On to B12, for which the IC50 came to 0.68 nM in assay [7] and 0.54 nM in assay [8].

B13: 1146D7 scFv (scFv, V domains shown)
VH: B3 VH with Y105L, A106N, G107P, G108S, D109L, H110T, Y111A
VL: B3 VL with K17E, S27T
notes: also called LOT1146D07
Turning to B13, the results for the IC50 in assay [7] and in assay [8] were 0.02 nM and 0.23 nM, respectively.

B14: 1150F1 scFv (scFv, V domains shown)
VH: B3 VH with G66D, S84G, Y105L, A106N, G107P, G108S, D109L, H110T, Y111A, Q120H
VL: B3 VL
notes: also called LOT1150F01
For the molecule B14, the IC50 in assay [7] stood at 0.16 nM; in assay [8], 0.2 nM.

B15: 1057F11 human IgG4 (antibody, V domains shown)
VH: EVQLVETGGGVVQPGTSLRLSCAASGFTFSSHGMHWVRQAPGQGLEWVAHAWSDGSNKYYADSLKGRFTISRDNSRNTLYLQMNSLRAEDTAVYYCARDGQQLANYAMDVWGRGTTVTVSS
VL: DIQMTQSPSFLSASVGDRVTITCRASQGINSYLAWYQQIPGKAPNLLIYAASTLQSGVPSRFSGSGSGTEFTLTISSLQPEDFATYYCQQLNTYPFTFGPGTKVEIK
Consider B15, for which the “IC50, calcium mobilisation assay” value in assay [5] was around 3700 nM.

B16: 1033B2 human IgG4 (antibody, V domains shown)
VH: QVQLQQSGAEVKKPGSSVKLSCKASGGTFSSFGISWVRQAPGQGLEWLGRIIPFLGPADYAQKFQGRVTITADESRSTAYMELSSLTSEDTAVYFCARSFYDILTGYYEGVFYYYMDVWGQGTMVTVSS
VL: QSVLIQPASVSGSPGQSITISCTGTSSDVGGYNYVSWYQQHPGKAPKLMIYEGSKRPSGVSNRFSGSKSGNTASLTISGLQAEDEADYYCSSYTTRSTRVFGGGTKLTVL
Regarding B16, the “IC50, calcium mobilisation assay” value in assay [5] stood at 85 nM.

B17: 1024C4 human IgG4 (antibody, V domains shown)
VH: QVQLQESGGGVVQPGRSLRLSCAASGFAFKKYGLHWVRQAPGKGLEWVGVTSYDGSKNYYADSVKGRFTISRDNSKNTLYLQVNSLRPEDTAVYYCAKDGEVGDLHLVPFRQDSGLDVWGRGTLVTVSS
VL: QSVLTQPPSVSVSPGQTASITCSGDNLGDKYVHWYQQKPGQSPVLVTYQDTKRPSGIPERFSGSNSGNTATLTISGTQAMDEAGYYCQAWDSSTVVFGGGTKLTVL
On to B17, for which the “IC50, calcium mobilisation assay” value was around 410 nM in assay [5] and around 565 nM in assay [6].

B18: 1022E3 human IgG4 (antibody, V domains shown)
VH: QVQLVQSGAEVKKPGASVKVSCKASGYSFINYSMHWVRQAPGQGLEWIGIINPGGDSTKYTQRFQDRVTMTWDTSTSTVYMDLSSLRSEDTAIYYCARGLHPIPMMLATINPIFAYWGQGTLVTVSS
VL: SSELTQDPAVSVALGQTVRITCRGDSLRNYYANWYQQKPGQAPVLVIYDENKRPSGIPDRFSGSGSGNTASLTITGAQAEDEADYFCNSRDTFGYVRDVLFGGGTKVTVL
As to B18, the “IC50, calcium mobilisation assay” value in assay [5] was 18 nM; in assay [6], 14 nM.

B19: 1064F8 human IgG4 (antibody, V domains shown)
VH: EVQLVQSGAEVKKPGSSVKVSCKASGGTFSSYAYTWVRQAPGQGLEWMGGIVPIFGSTNYAQKFQGRLTITADEFTSTAHMELSSLTSADTAVYYCAGGSDLYCSGGNCYGGGHYYYYMDVWGQGTTVTVSS
VL: SSELTQDPAVSVALGQTVRITCTGTSSDVGGYNYVSWYQQHPGKAPKLMIYEGSKRPSGVSNRFSGSKSGNTASLTISGLQAEDEADYYCSSYTTRSTRVFGGGTKLTVL
As for B19, the “IC50, calcium mobilisation assay” value was 2.5 nM in assay [5] and 5.5 nM in assay [6].

B20: 1016A8 human IgG4 (antibody, V domains shown)
VH: EVQLVQSGAELKKPGASVKVSCKASGYPFTSYYMHWVRQAPGQGLEWMGLVDPEDGETIYAEKFQGRVTITADTSTDTAYMELSSLRSEDTAVYSCATSSHNYGTASYYHYGMDVWGRGTMVTVSS
VL: QSVLTQPPSASGTPGQRVTISCSGSSSNIGSNTVNWYQRLPGAAPQLLIYNNDQRPSGIPDRFSGSKSGTSGSLVISGLQSEDEADYYCASWDDSLNGRVFGGGTKLTVL
Turning to B20, the “IC50, calcium mobilisation assay” value in assay [5] worked out at 65 nM; in assay [6] it was 14 nM.
